The text below walks through data of the RNAGym collection of RNA variant scans (doi:10.1093/molbev/msab373).

First the molecules themselves.
B1: Azoarcus group I ribozyme (parent)
chain: GUGCCUUGCGCCGGGAAACCACGCAAGGGAUGGUGUCAAAUUCGGCGAAACCUAAGCGCCCGCCCGGGCGUAUGGCAACGCCGAGCCAAGCUUCGGCGCCUGCGCCGAUGAAGGUGUAGAGACUAGACGGCACCCACCUAAGGCAAACGCUAUGGUGAAGGCAUAGUCCAGGGAGUGGCGAAAGUCACACAAACCGG

Variants of B1 are the subject of the series. Kind of series: reverse-splicing fitness (ratio to wild type); higher = more active; in vitro selection; Mg2+ level not given. In short, it runs like this:
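An in vitro group I ribozyme library with randomized positions was T7-transcribed and gel-purified. In triplicate, 10 pmol RNA in EPPS pH 7.5 was reacted with 50 pmoles of a 30-nt RNA substrate for 1 h at 37 °C across several added MgCl2 levels (1–48 mM), then stopped with EDTA. Products were reverse transcribed from a substrate-complementary primer, PCR-amplified and sequenced (HiSeq 4000). Fitness is a variant's read proportion after selection over that before, normalised to wild type.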
As for GUGCCUUGCGCCGGGAAACCACGCAAGGGAUGGUGUCAAAUUCGGCGAAACCUAAGCGCCCGCCCGGGCGUAUGGCAACGCUGAGCCAAGCUUCGGCGCCUGCGCCGAUGCAGGUGUAGCGACUAGACGGCACCCACCUAAGGCGAACGGUAUGGUGAAGGCAUAGUCCAGGGAGCGGCGAAAGUCACACAAACCGG [C82U A111C A120C A145G C150G U176C], the reverse-splicing fitness is 0.00988. For GUGCCUUGCGCCGGGAAACCACGCAAGGGAUGGUGUCAAAUUCGGCGAAACCUAAGCGCCCGCCCGGGCGUAUGGCAACGCUGAGCCAAGCUUCGGCGCCUGCGCCGAUGCAGGUGUAGCGACUAGACGGCACCCACCUAAGGCGAACGGUAUGGUGAAGGCAUAGUCCAGGGAGGGGCGAAAGUCACACAAACCGG [C82U A111C A120C A145G C150G U176G], the reverse-splicing fitness amounted to 0.00622.

In the case of GUGCCUUGCGCCGGGAAACCACGCAAGGGAUGGUGUCAAAUUCGGCGAAACCUAAGCGCCCGCCCGGGCGUAUGGCAACGCUGAGCCAAGCUUCGGCGCCUGCGCCGAUGCAGGUGUAGCGACUAGACGGCACCCACCUAAGGCGAACGGUAUGGUGAAGGCAUAGUCCAGGGAGAGGCGAAAGUCACACAAACCGG [C82U A111C A120C A145G C150G U176A], the reverse-splicing fitness is 0.00676. To GUGCCUUGCGCCGGGAAACCACGCAAGGGAUGGUGUCAAAUUCGGCGAAACCUAAGCGCCCGCCCGGGCGUAUGGCAACGCUGAGCCAAGCUUCGGCGCCUGCGCCGAUGCAGGUGUAGCGACUAGACGGCACCCACCUAAGGCGAACGCUAUGGUGAAGGCAUAGUCAAGGGAGAGGCGAAAGUCACACAAACCGG [C82U A111C A120C A145G C169A U176A] belongs 0.0198; to GUGCCUUGCGCCGGGAAACCACGCAAGGGAUGGUGUCAAAUUCGGCGAAACCUAAGCGCCCGCCCGGGCGUAUGGCAACGCUGAGCCAAGCUUCGGCGCCUGCGCCGAUGCAGGUGUAGCGACUAGACGGCACCCACCUAAGGCGAACGGUAUGGUGAAGGCAUAGUCUAGGGAGGGGCGAAAGUCACACAAACCGG [C82U A111C A120C A145G C150G C169U U176G], 0.007.

With GUGCCUUGCGCCGGGAAACCACGCAAGGGAUGGUGUCAAAUUCGGCGAAACCUAAGCGCCCGCCCGGGCGUAUGGCAACGCUGAGCCAAGCUUCGGCGCCUGCGCCGAUGCAGGUGUAGCGACUAGACGGCACCCACCUAAGGCGAACGGUAUGGUGAAGGCAUAGUCUAGGGAGCGGCGAAAGUCACACAAACCGG [C82U A111C A120C A145G C150G C169U U176C], the reverse-splicing fitness came out at 0.0122. To GUGCCUUGCGCCGGGAAACCACGCAAGGGAUGGUGUCAAAUUCGGCGAAACCUAAGCGCCCGCCCGGGCGUAUGGCAACGCUGAGCCAAGCUUCGGCGCCUGCGCCGAUGCAGGUGUAGCGACUAGACGGCACCCACCUAAGGCGAACGGUAUGGUGAAGGCAUAGUCUAGGGAGAGGCGAAAGUCACACAAACCGG [C82U A111C A120C A145G C150G C169U U176A] belongs 0.0111; to GUGCCUUGCGCCGGGAAACCACGCAAGGGAUGGUGUCAAAUUCGGCGAAACCUAAGCGCCCGCCCGGGCGUAUGGCAACGCUGAGCCAAGCUUCGGCGCCUGCGCCGAUGCAGGUGUAGCGACUAGACGGCACCCACCUAAGGCGAACGUUAUGGUGAAGGCAUAGUCCAGGGAGUGGCGAAAGUCACACAAACCGG [C82U A111C A120C A145G C150U], 0.0229. The value for GUGCCUUGCGCCGGGAAACCACGCAAGGGAUGGUGUCAAAUUCGGCGAAACCUAAGCGCCCGCCCGGGCGUAUGGCAACGCUGAGCCAAGCUUCGGCGCCUGCGCCGAUGCAGGUGUAGCGACUAGACGGCACCCACCUAAGGCGAACGUUAUGGUGAAGGCAUAGUCCAGGGAGGGGCGAAAGUCACACAAACCGG [C82U A111C A120C A145G C150U U176G] was 0.00635; that for GUGCCUUGCGCCGGGAAACCACGCAAGGGAUGGUGUCAAAUUCGGCGAAACCUAAGCGCCCGCCCGGGCGUAUGGCAACGCUGAGCCAAGCUUCGGCGCCUGCGCCGAUGCAGGUGUAGCGACUAGACGGCACCCACCUAAGGCGAACGUUAUGGUGAAGGCAUAGUCCAGGGAGAGGCGAAAGUCACACAAACCGG [C82U A111C A120C A145G C150U U176A] was 0.0113. The value for GUGCCUUGCGCCGGGAAACCACGCAAGGGAUGGUGUCAAAUUCGGCGAAACCUAAGCGCCCGCCCGGGCGUAUGGCAACGCUGAGCCAAGCUUCGGCGCCUGCGCCGAUGCAGGUGUAGCGACUAGACGGCACCCACCUAAGGCGAACGUUAUGGUGAAGGCAUAGUCCAGGGAGCGGCGAAAGUCACACAAACCGG [C82U A111C A120C A145G C150U U176C] was 0.0186.

For GUGCCUUGCGCCGGGAAACCACGCAAGGGAUGGUGUCAAAUUCGGCGAAACCUAAGCGCCCGCCCGGGCGUAUGGCAACGCUGAGCCAAGCUUCGGCGCCUGCGCCGAUGCAGGUGUAGCGACUAGACGGCACCCACCUAAGGCGAACGGUAUGGUGAAGGCAUAGUCGAGGGAGAGGCGAAAGUCACACAAACCGG [C82U A111C A120C A145G C150G C169G U176A], the reverse-splicing fitness came to 0.00967. For the variant GUGCCUUGCGCCGGGAAACCACGCAAGGGAUGGUGUCAAAUUCGGCGAAACCUAAGCGCCCGCCCGGGCGUAUGGCAACGCUGAGCCAAGCUUCGGCGCCUGCGCCGAUGCAGGUGUAGCGACUAGACGGCACCCACCUAAGGCGAACGGUAUGGUGAAGGCAUAGUCGAGGGAGGGGCGAAAGUCACACAAACCGG [C82U A111C A120C A145G C150G C169G U176G], the reverse-splicing fitness worked out at 0.00542.

As for GUGCCUUGCGCCGGGAAACCACGCAAGGGAUGGUGUCAAAUUCGGCGAAACCUAAGCGCCCGCCCGGGCGUAUGGCAACGCUGAGCCAAGCUUCGGCGCCUGCGCCGAUGCAGGUGUAGCGACUAGACGGCACCCACCUAAGGCGAACGGUAUGGUGAAGGCAUAGUCGAGGGAGCGGCGAAAGUCACACAAACCGG [C82U A111C A120C A145G C150G C169G U176C], the reverse-splicing fitness came to 0.011. To GUGCCUUGCGCCGGGAAACCACGCAAGGGAUGGUGUCAAAUUCGGCGAAACCUAAGCGCCCGCCCGGGCGUAUGGCAACGCUGAGCCAAGCUUCGGCGCCUGCGCCGAUGCAGGUGUAGCGACUAGACGGCACCCACCUAAGGCGAACGUUAUGGUGAAGGCAUAGUCGAGGGAGGGGCGAAAGUCACACAAACCGG [C82U A111C A120C A145G C150U C169G U176G] belongs 0.00547.
